Laboratory results: PMC12169662, “De Novo-Designed APC/C Inhibitors Provide a Rationale for Targeting RING-Type E3 Ubiquitin Ligases” (Journal of Medicinal Chemistry, 2025)
Bridge positions count the residues as written; N and C are the ends. Square brackets hold non-standard residues; d marks the D form. Ends that are not written are not given here. R8 = C=CCCCCCC[C@@](C)(N)C(=O)O; S5 = C=CCCC[C@](C)(N)C(=O)O

Tests used:
[1] = target: T1, recombinant APC/C (anaphase promoting complex/cyclosome) (UniProt Q9NYG5 1-84; Q9UJX6 1-822; Q9H1A4 1-1944; P30260 1-824); assay: cell-based or functional assay
[2] = target: T1, recombinant APC/C (anaphase promoting …); assay: enzyme kinetics (in vitro APC/C ubiquitination assay); 20 nM recombinant APC/C, 340 nM CDC20, UBA1, UBE2C K119R, ubiquitin; securin titrated from 50 nM to 5 μM with and without H6; initial velocity; 30 °C, 30 mM HEPES pH 7.4, 175 mM NaCl, 8 mM MgCl2; model for noncompetitive inhibition; conditions: both partners purified

T1 sequence (P30260 whole entry, looked up, chain 1 of 4): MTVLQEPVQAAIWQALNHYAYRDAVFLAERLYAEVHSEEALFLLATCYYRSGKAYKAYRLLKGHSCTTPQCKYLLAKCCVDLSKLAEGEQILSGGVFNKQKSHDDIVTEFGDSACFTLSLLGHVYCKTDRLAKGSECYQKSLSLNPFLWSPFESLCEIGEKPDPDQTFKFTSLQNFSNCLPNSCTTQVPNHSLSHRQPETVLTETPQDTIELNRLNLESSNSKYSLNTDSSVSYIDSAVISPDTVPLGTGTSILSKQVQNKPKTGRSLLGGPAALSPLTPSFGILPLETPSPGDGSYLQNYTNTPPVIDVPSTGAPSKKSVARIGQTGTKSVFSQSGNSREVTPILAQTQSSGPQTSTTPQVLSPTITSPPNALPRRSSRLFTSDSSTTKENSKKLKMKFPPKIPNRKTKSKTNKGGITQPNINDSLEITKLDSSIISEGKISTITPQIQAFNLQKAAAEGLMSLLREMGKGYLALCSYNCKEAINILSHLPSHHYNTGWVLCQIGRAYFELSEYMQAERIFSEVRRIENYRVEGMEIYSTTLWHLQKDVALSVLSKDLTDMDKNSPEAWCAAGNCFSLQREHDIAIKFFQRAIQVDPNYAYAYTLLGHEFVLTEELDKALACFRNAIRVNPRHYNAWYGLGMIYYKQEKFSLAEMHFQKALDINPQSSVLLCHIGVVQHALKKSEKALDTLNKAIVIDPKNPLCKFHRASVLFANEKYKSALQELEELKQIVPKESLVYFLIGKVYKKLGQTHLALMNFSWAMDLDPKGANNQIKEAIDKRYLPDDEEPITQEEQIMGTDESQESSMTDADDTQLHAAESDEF
T1 sequence (Q9H1A4 whole entry, looked up, chain 2 of 4): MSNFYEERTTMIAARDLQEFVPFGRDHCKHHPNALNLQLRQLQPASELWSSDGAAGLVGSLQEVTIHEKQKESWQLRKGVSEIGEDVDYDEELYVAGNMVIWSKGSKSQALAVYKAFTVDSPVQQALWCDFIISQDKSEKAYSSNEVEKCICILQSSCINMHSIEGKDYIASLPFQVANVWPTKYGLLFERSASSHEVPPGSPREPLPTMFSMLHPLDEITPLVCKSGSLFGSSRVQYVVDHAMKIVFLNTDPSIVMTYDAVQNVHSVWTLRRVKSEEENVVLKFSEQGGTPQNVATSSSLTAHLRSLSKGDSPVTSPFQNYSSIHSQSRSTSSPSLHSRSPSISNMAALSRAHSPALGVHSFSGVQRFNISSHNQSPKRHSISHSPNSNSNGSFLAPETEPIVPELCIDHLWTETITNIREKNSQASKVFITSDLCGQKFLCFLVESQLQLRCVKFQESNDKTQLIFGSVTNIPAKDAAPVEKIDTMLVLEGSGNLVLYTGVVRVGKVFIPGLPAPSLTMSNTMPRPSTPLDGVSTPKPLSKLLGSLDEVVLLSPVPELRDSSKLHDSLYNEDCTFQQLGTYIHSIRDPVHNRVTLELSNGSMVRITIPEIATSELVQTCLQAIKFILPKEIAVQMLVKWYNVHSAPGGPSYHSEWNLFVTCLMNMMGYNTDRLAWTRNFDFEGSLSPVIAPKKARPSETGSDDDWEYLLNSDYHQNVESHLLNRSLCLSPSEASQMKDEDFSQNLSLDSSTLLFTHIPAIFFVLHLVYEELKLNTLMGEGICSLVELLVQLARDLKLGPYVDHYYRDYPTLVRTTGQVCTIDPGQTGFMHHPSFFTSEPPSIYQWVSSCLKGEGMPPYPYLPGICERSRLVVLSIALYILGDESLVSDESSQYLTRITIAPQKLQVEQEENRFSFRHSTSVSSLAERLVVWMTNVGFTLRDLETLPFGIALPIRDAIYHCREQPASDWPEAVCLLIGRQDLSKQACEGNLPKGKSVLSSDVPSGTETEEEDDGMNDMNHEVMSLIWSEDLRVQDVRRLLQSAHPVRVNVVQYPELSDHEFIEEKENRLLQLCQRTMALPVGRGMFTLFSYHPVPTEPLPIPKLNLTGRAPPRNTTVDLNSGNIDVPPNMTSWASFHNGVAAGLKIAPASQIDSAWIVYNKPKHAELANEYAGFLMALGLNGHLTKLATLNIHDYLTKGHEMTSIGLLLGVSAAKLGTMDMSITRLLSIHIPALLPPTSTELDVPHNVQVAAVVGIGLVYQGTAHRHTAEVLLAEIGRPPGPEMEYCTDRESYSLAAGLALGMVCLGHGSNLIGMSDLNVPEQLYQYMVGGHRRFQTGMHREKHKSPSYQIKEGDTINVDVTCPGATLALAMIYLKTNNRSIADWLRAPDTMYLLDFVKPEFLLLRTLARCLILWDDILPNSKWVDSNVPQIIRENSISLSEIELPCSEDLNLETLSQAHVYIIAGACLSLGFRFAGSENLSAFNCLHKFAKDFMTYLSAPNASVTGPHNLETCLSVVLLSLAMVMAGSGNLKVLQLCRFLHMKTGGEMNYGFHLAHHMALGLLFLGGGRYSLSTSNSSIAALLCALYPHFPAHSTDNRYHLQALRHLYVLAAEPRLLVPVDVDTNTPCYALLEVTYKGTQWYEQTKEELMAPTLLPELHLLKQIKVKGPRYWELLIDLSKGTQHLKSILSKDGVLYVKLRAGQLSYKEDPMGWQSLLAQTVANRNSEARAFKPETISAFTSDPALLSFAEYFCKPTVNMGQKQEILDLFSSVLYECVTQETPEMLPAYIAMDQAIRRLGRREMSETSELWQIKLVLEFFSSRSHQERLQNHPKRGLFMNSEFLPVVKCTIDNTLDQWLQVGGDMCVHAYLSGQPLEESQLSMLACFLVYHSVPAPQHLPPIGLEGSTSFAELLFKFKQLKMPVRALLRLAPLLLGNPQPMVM
T1 sequence (Q9UJX6 whole entry, looked up, chain 3 of 4): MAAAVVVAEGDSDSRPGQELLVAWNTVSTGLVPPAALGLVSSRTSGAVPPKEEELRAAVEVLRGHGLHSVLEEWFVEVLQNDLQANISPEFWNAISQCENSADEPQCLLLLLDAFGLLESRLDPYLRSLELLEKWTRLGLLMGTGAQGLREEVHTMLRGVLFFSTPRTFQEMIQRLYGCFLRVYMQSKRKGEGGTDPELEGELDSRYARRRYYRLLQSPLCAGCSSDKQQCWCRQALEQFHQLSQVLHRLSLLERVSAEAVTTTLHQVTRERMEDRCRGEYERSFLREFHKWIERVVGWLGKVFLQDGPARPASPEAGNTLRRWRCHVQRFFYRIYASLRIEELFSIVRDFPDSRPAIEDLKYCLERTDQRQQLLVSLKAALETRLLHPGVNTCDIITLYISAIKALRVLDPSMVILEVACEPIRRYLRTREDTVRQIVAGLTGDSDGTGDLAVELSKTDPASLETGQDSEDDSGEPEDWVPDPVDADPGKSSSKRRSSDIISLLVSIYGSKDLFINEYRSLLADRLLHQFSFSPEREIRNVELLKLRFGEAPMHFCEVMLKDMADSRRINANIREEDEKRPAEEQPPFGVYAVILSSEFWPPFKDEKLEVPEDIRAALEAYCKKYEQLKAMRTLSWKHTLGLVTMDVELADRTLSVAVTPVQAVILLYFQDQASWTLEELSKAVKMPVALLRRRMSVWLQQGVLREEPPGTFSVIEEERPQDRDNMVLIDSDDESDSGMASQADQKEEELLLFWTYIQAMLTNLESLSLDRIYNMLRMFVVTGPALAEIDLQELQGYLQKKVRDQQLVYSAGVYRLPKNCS
T1 sequence (Q9NYG5 whole entry, looked up, chain 4 of 4): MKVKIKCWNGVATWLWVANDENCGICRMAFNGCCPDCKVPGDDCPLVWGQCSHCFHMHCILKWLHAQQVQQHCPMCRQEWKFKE

B1: H6 (designed binder)
chain: EWW[R8]IKEIQR[S5]RRA
modifications: staple 4-11
[1]
  IC50 of in vitro APC/C ubiquitination of the substrate, H6 titrated from 0.01 to 100 μM; blocks E2 recruitment to the RING domain of APC/C: 1.96 µM
[2]
  Ki: 5.03 ± 0.79 µM
